The values that follow come from article doi:10.1101/2020.10.28.360099 (bioRxiv, 2020).

Series [1] deals with recombinant jack bean conA precursor (pro-conA) (Canavalia ensiformis (jack bean)). Briefly: crystal structure.
The series “crystal structure” deals with the molecule itself. Briefly: crystal structure.

Regarding “recombinant jack bean conA precursor (pro-conA) (natural protein)”, in series [1], the stoichiometry N came out at 2.

B1: jack bean asparaginyl endopeptidase 1 (CeAEP1) (enzyme, Canavalia ensiformis (jack bean), UniProt P49046 36-475, looked up)
chain: EVGTRWAVLVAGSNGYGNYRHQADVCHAYQLLIKGGVKEENIVVFMYDDIAYNAMNPRPGVIINHPQGPDVYAGVPKDYTGEDVTPENLYAVILGDKSKVKGGSGKVINSNPEDRIFIFYSDHGGPGVLGMPNAPFVYAMDFIDVLKKKHASGGYKEMVIYIEACESGSIFEGIMPKDLNIYVTTASNAQENSFGTYCPGMNPPPPEEYVTCLGDLYSVSWMEDSETHNLKRETVQQQYQSVRKRTSNSNSYRFGSHVMQYGDTNITAEKLYLYHGFDPATVNFPPHNGNLEAKMEVVNQRDAELLFMWQMYQRSNHQPEKKTHILEQITETVKHRNHLDGSVELIGVLLYGPGKSSSVLHSVRAPGLPLVDDWTCLKSMVRVFETHCGSLTQYGMKHMRAFGNVCNSGVSKASMEEACKAACGGYDAGLLYPSNTGYSA
modifications: succinimide intermediate (SNN) modelled at Asp157
On to B1, for which the “stoichiometry N” value in the series “crystal structure” stood at 2.
